Reference: patent US20120237496
Changes are numbered by the printed parent chain.

T1: Peptide-6b
T1 chain: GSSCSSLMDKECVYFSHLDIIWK

T2: Peptide-8 (not fully specified)
T2 chain: CQLYENKPRRPYILK

T3: Peptide-3
T3 chain: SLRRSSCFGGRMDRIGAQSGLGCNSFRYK

T4: Peptide-13 (not fully specified)
T4 chain: CRPPGFSPFRK

T5: Peptide-5 (not fully specified)
T5 chain: CDRVYIHPFHLK

T6: Peptide-6a
T6 chain: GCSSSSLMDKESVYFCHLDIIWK

B1: C1 (protein)
chain: YPYDVPDYAYPYDVPDYAYPYDVPDYAGSYDDGICKSSDCIKSAARLIQNMDATTEPCTDFFKYACGGWLKRNVIPETSSRYGNFDILRDELEVVLKDVLQEPKTEDIVAVQKAKALYRSCINESAIDSRGGEPLLKLLPDIYGWPVATENWEQKYGASWTAEKAIAQLNSKYGKKVLINLFVGTDDKNSVNHVIHIDQPRLGLPSRDYYECTGIYKEACTAYVDFMISVARLIRQEERLPIDENQLALEMNKVMELEKEIANATAKPEDRNDPMLLYNKMTLAQIQNNFSLEINGKPFSWLNFTNEIMSTVNISITNEEDVVVYAPEYLTKLKPILTKYSARDLQNLMSWRFIMDLVSSLSRTYKESRNAFRKALYVTTSETATWRRCANYVNGNMMNAVGRLYVEAAFAGESKHVVEDLIAQIREVFIQTLDDLTWMDAETKKRAEEKALAIKERIGYPDDIVSNDNKLNNEYLELNYKEDEYFENIIQNLKFSQSKQLKKLREKVDKDEWISGAAVVNAFYSSGRNQIVFPAGILQPPFFSAQQSNSLNYGGIGMVIGHEITHGFDDNGRNFNKDGDLVDWWTQQSASNFKEQSQCMVYQYGNFSWDLAGGQHLNGINTLGENIADNGGLGQAYRAYQNYIKKNGEEKLLPGLDLNHKQLFFLNFAQVWCGTYRPEYAVNSIKTVVHSPKNFRIIGTLQNSAEFSEAFHCRKNSYMNPEKKCRVW
B2: C2 (protein)
chain: B1 chain with S206R, R207G, F226L, D569F, F575P, G579D, V688D
B3: C3 (protein)
chain: B1 chain with S206R, R207G, F226L, M398E, D569F, F575P, G579D, V688D
B4: C6 (protein)
chain: B1 chain with S206R, R207G, D569M, G572V, G579V, V688D
B5: C9 (protein)
chain: B1 chain with S206R, R207G, M398E, D569M, G572V, G579L, V688D
B6: D7 (protein)
chain: B1 chain with S206R, F226L, D356G, D569M, G572V, F575P, G579D, V688D
B7: D4 (protein)
chain: B1 chain with A266S, D356G, D569F, F575P, G579D, V688D
B8: D10 (protein)
chain: B1 chain with S206R, F226L, A266S, D356G, D569M, G572V, F575P, G579D, G624Q, V688D
B9: D3 (protein)
chain: B1 chain with D569F, F575P, G579D, G624Q, V688D
B10: D6 (protein)
chain: B1 chain with S206R, F226L, A266S, D569M, G572V, F575P, G579D, V688D
B11: D1 (protein)
chain: B1 chain with A266S, D569F, F575P, G579D, V688D
B12: C5 (protein)
chain: B1 chain with S206R, R207G, D569F, F575P, G579D, V688D
B13: D5 (protein)
chain: B1 chain with A266S, D356G, D569F, F575P, G579D, G624Q, V688D
B14: C7 (protein)
chain: B1 chain with S206R, R207G, M398E, D569F, G572V, G579L, V688D
B15: D8 (protein)
chain: B1 chain with S206R, F226L, D569M, G572V, F575P, G579D, G624Q, V688D
B16: D2 (protein)
chain: B1 chain with D356G, D569F, F575P, G579D, V688D
B17: C4 (protein)
chain: B1 chain with S206R, R207G, D569F, G572V, G579V, V688D
B18: D9 (protein)
chain: B1 chain with S206R, F226L, A266S, D356G, D569M, G572V, F575P, G579D, V688D
B19: C8 (protein)
chain: B1 chain with S206R, R207G, M398E, D569F, G579W, V688D

Columns and labels:
[1] = molecular target: Peptide-7
[2] = molecular target: T1, Peptide-6b
[3] = molecular target: T2, Peptide-8
[4] = molecular target: T3, Peptide-3
[5] = molecular target: T4, Peptide-13
[6] = molecular target: Peptide-2
[7] = molecular target: Peptide-1
[8] = molecular target: Peptide-4
[9] = molecular target: T5, Peptide-5
[10] = molecular target: T6, Peptide-6a

Row | Protein | activity relative to G399V/G714K (B1) [1] [fold] | kapp ratio vs G399V/G714K (B1) [1] [fold] | kapp ratio vs G399V/G714K (B1) [2] [fold] | kapp ratio vs G399V/G714K (B1) [3] [fold] | kapp ratio vs G399V/G714K (B1) [4] [fold] | kapp ratio vs G399V/G714K (B1) [5] [fold] | activity relative to G399V/G714K (B1) [6] [fold] | kapp ratio vs G399V/G714K (B1) [6] [fold] | activity relative to G399V/G714K (B1) [7] [fold] | kapp ratio vs G399V/G714K (B1) [7] [fold] | activity relative to G399V/G714K (B1) [8] [fold] | kapp ratio vs G399V/G714K (B1) [8] [fold] | activity relative to G399V/G714K (B1) [9] [fold] | kapp ratio vs G399V/G714K (B1) [9] [fold] | activity relative to G399V/G714K (B1) [10] [fold] | kapp ratio vs G399V/G714K (B1) [10] [fold]
1 | B1 | 0.96 | 0.9 | 0.76 | 0.62 | 0.36 | 0.52 | 1.12 | 1.23 | 1.14 | 1.28 | 1.1 | 0.51 | 0.86 | 1.02 | 0.76 | 0.97
2 | B2 |  | 0.47 | 0.1 | 0.34 | 0.24 | 0.68 |  | 0.88 |  | 1.06 |  | 0.72 |  | 0.19 |  | 0.14
3 | B3 |  | 0.64 | 0.09 | 0.37 | 0.24 | 0.85 |  | 0.81 |  | 0.86 |  | 0.79 |  | 0.15 |  | 0.18
4 | B4 |  | 0.61 | 0.19 | 0.37 | 0.24 | 0.85 |  | 2.36 |  | 2.35 |  | 1.26 |  | 0.29 |  | 0.28
5 | B5 |  | 0.52 | 0.21 | 0.46 | 0.24 | 0.52 |  | 2.44 |  | 2.33 |  | 0.67 |  | 0.22 |  | 0.31
6 | B6 | 0.66 |  |  |  |  |  | 1.18 |  | 0.88 |  | 0.91 |  | 0.09 |  | 0.13 | 
7 | B7 | 0.51 |  |  |  |  |  | 2.71 |  | 2.43 |  | 0.91 |  | 0.08 |  | 0.28 | 
8 | B8 | 0.33 |  |  |  |  |  | 1.26 |  | 1.33 |  | 0.84 |  | 0.08 |  | 0.08 | 
9 | B9 | 0.95 |  |  |  |  |  | 3.42 |  | 3.11 |  | 1.04 |  | 0.1 |  | 0.47 | 
10 | B10 | 0.68 |  |  |  |  |  | 2.37 |  | 2.24 |  | 0.89 |  | 0.08 |  | 0.35 | 
11 | B11 | 0.61 |  |  |  |  |  | 1.24 |  | 1.11 |  | 0.95 |  | 0.08 |  | 0.12 | 
12 | B12 |  | 0.72 | 0.18 | 0.41 | 0.24 | 0.63 |  | 1.92 |  | 1.95 |  | 0.74 |  | 0.22 |  | 0.23
13 | B13 | 0.9 |  |  |  |  |  | 3.37 |  | 2.94 |  | 0.9 |  | 0.08 |  | 0.35 | 
14 | B14 |  | 0.47 | 0.28 | 0.46 | 0.24 | 0.43 |  | 2.83 |  | 2.77 |  | 0.96 |  | 0.34 |  | 0.42
15 | B15 | 0.82 |  |  |  |  |  | 2.66 |  | 2.58 |  | 0.95 |  | 0.09 |  | 0.44 | 
16 | B16 | 0.4 |  |  |  |  |  | 1.06 |  | 0.83 |  | 0.9 |  | 0.08 |  | 0.08 | 
17 | B17 |  | 0.44 | 0.29 | 0.4 | 0.24 | 0.62 |  | 2.43 |  | 2.41 |  | 0.44 |  | 0.27 |  | 0.37
18 | B18 | 0.43 |  |  |  |  |  | 1.11 |  | 1.07 |  | 0.86 |  | 0.08 |  | 0.06 | 
19 | B19 |  | 0.69 | 0.24 | 0.36 | 0.24 | 0.43 |  | 1.64 |  | 1.86 |  | 1.17 |  | 0.27 |  | 0.32
